Experimental findings from publication PMC9561270, “Phosphorylation of the auxin signaling transcriptional repressor IAA15 by MPKs is required for the suppression of root development under drought stress in Arabidopsis” (Nucleic Acids Research, 2022) are described below.

One test addresses T1, His-MPK6 (Arabidopsis thaliana, UniProt Q39026 1-395).
T1 construct: also called His-fused MPK6; source: E. coli M15, purified (Ni-NTA agarose); not shown: His, N-terminal, kept
Nature of the test: pull-down; 2 ug GST or GST-IAA15 on glutathione-Sepharose 4B beads; 1 ug His-MPK added, overnight at 4 C; 50 mM Tris-HCl pH 7.5, 200 mM NaCl, 1% Triton X-100, 0.1 mM EDTA, 0.5 mM DTT; detected with anti-His antibodies. The settings on record: both partners purified.

Another test has as its target T2, His-MPK3 (Arabidopsis thaliana, UniProt Q39023 1-370).
T2 construct: also called His-fused MPK3; source: E. coli M15, purified (Ni-NTA agarose); not shown: His, N-terminal, kept
T2 sequence (looked up): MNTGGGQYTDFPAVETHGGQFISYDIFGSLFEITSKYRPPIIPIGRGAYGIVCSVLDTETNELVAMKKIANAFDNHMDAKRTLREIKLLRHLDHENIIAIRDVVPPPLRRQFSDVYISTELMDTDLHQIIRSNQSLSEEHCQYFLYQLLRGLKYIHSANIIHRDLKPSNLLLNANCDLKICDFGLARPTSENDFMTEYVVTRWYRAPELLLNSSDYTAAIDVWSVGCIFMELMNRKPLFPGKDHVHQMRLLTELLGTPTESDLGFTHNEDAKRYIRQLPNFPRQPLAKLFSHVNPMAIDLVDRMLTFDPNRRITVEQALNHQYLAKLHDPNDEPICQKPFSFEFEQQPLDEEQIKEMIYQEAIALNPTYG
The test is described as above. The settings on record: both partners purified.

T1 sequence (Q39026 whole entry, the tested form may be a part): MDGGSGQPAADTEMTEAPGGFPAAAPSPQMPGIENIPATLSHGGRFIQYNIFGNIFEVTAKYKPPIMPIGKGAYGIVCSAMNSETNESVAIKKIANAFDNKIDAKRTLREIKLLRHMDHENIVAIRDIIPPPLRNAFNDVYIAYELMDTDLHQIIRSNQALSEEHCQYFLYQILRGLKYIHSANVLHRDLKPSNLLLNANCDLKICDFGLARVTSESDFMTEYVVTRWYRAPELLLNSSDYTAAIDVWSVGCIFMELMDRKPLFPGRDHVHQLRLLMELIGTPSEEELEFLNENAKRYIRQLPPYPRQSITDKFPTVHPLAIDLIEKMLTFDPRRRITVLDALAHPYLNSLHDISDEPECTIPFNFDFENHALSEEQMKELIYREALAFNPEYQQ

B1: GST-IAA15 (natural protein, Arabidopsis thaliana, UniProt Q9C966 1-179, looked up)
chain: MSPEEYVRVWPDSGDLGGTELTLALPGTPTNASEGPKKFGNKRRFLETVDLKLGEAHENNYISSMVTNDQLVGWPPVATARKTVRRKYVKVALDGAAYLRKVDLGMYDCYGQLFTALENMFQGIITICRVTELERKGEFVATYEDKDGDLMLVGDVPWMMFVESCKRMRLMKTGDAIGL
notes: Auxin-responsive protein IAA15, Arabidopsis thaliana, At1g80390, full length, cloned into pGEX-4T-1; also called GST-fused IAA15; GST-IAA15^WT; source: E. coli BL21 (DE3), purified (glutathione Sepharose-4B); not shown: GST, N-terminal, kept
B1: the binding result in the test with His-MPK6 and in the test with His-MPK3 was “binds” in each case.
